# Measurements from the RNAGym collection of RNA variant scans (doi:10.1101/gr.219683.116).
# B1: mRNA-splicing (parent)
# chain: AGUUGCUGCUGGGAGCUCCAGCACAGUGAAAUGGACAGAAGGGCAGAGCAA
# Variants of: B1
# Assay: exon inclusion enrichment index; higher = more inclusion; WT1 exon 5 minigene, HEK293
row,Variant,exon inclusion enrichment index
1,AGUUCCACUCGGGAGCUCCAGCACAGUGAAAUGGACAGAAGGGCAGAGCAA [G5C U7A G8C C9U U10C],0.259
2,AGUUUGCGACGGGAGCUCCAGCACAGUGAAAUGGACAGAAGGGCAGAGCAA [G5U C6G U7C C9A U10C],2.41
3,AGUUCCGGAUGGGAGCUCCAGCACAGUGAAAUGGACAGAAGGGCAGAGCAA [G5C U7G C9A],1.66
4,AGUUUGCUUUGGGAGCUCCAGCACAGUGAAAUGGACAGAAGGGCAGAGCAA [G5U C6G U7C G8U C9U],0.349
5,AGUUCUAGAAGGGAGCUCCAGCACAGUGAAAUGGACAGAAGGGCAGAGCAA [G5C C6U U7A C9A U10A],0.0605
6,AGUUCUCACCGGGAGCUCCAGCACAGUGAAAUGGACAGAAGGGCAGAGCAA [G5C C6U U7C G8A U10C],1.77
7,AGUUCUCACAGGGAGCUCCAGCACAGUGAAAUGGACAGAAGGGCAGAGCAA [G5C C6U U7C G8A U10A],0.137
8,AGUUCUAUAUGGGAGCUCCAGCACAGUGAAAUGGACAGAAGGGCAGAGCAA [G5C C6U U7A G8U C9A],0.195
9,AGUUCCGACAGGGAGCUCCAGCACAGUGAAAUGGACAGAAGGGCAGAGCAA [G5C U7G G8A U10A],0.113
10,AGUUCUUUACGGGAGCUCCAGCACAGUGAAAUGGACAGAAGGGCAGAGCAA [G5C C6U G8U C9A U10C],0.494
11,AGUUCUUUUUGGGAGCUCCAGCACAGUGAAAUGGACAGAAGGGCAGAGCAA [G5C C6U G8U C9U],0.106
12,AGUUCUGUUCGGGAGCUCCAGCACAGUGAAAUGGACAGAAGGGCAGAGCAA [G5C C6U U7G G8U C9U U10C],1.07
13,AGUUCUCAUCGGGAGCUCCAGCACAGUGAAAUGGACAGAAGGGCAGAGCAA [G5C C6U U7C G8A C9U U10C],1.99
14,AGUUCUCGACGGGAGCUCCAGCACAGUGAAAUGGACAGAAGGGCAGAGCAA [G5C C6U U7C C9A U10C],3.23
15,AGUUCCCCUCGGGAGCUCCAGCACAGUGAAAUGGACAGAAGGGCAGAGCAA [G5C U7C G8C C9U U10C],0.0413
16,AGUUCCAGAAGGGAGCUCCAGCACAGUGAAAUGGACAGAAGGGCAGAGCAA [G5C U7A C9A U10A],0.367
17,AGUUCCGGCCGGGAGCUCCAGCACAGUGAAAUGGACAGAAGGGCAGAGCAA [G5C U7G U10C],1.34
18,AGUUUACUUUGGGAGCUCCAGCACAGUGAAAUGGACAGAAGGGCAGAGCAA [G5U C6A U7C G8U C9U],0.164
19,AGUUCUGCUCGGGAGCUCCAGCACAGUGAAAUGGACAGAAGGGCAGAGCAA [G5C C6U U7G G8C C9U U10C],1.54
20,AGUUUUUCUCGGGAGCUCCAGCACAGUGAAAUGGACAGAAGGGCAGAGCAA [G5U C6U G8C C9U U10C],0.672
21,AGUUUAAUAUGGGAGCUCCAGCACAGUGAAAUGGACAGAAGGGCAGAGCAA [G5U C6A U7A G8U C9A],0.0741
22,AGUUUAAUUUGGGAGCUCCAGCACAGUGAAAUGGACAGAAGGGCAGAGCAA [G5U C6A U7A G8U C9U],0.0678
23,AGUUUGAGAAGGGAGCUCCAGCACAGUGAAAUGGACAGAAGGGCAGAGCAA [G5U C6G U7A C9A U10A],0.147
24,AGUUCCUGCCGGGAGCUCCAGCACAGUGAAAUGGACAGAAGGGCAGAGCAA [G5C U10C],1.29
25,AGUUCUGAUCGGGAGCUCCAGCACAGUGAAAUGGACAGAAGGGCAGAGCAA [G5C C6U U7G G8A C9U U10C],1.49
26,AGUUCUAGUCGGGAGCUCCAGCACAGUGAAAUGGACAGAAGGGCAGAGCAA [G5C C6U U7A C9U U10C],0.234

row,Variant,exon inclusion enrichment index
1,AGUUUAAGAAGGGAGCUCCAGCACAGUGAAAUGGACAGAAGGGCAGAGCAA [G5U C6A U7A C9A U10A],0.0813
2,AGUUCUUCCGGGGAGCUCCAGCACAGUGAAAUGGACAGAAGGGCAGAGCAA [G5C C6U G8C U10G],1.68
3,AGUUCUUCCAGGGAGCUCCAGCACAGUGAAAUGGACAGAAGGGCAGAGCAA [G5C C6U G8C U10A],0.518
4,AGUUCUUCCCGGGAGCUCCAGCACAGUGAAAUGGACAGAAGGGCAGAGCAA [G5C C6U G8C U10C],2.2
5,AGUUUAGUUUGGGAGCUCCAGCACAGUGAAAUGGACAGAAGGGCAGAGCAA [G5U C6A U7G G8U C9U],0.013
6,AGUUCUAGCCGGGAGCUCCAGCACAGUGAAAUGGACAGAAGGGCAGAGCAA [G5C C6U U7A U10C],0.444
7,AGUUUACGACGGGAGCUCCAGCACAGUGAAAUGGACAGAAGGGCAGAGCAA [G5U C6A U7C C9A U10C],2.8
8,AGUUUGGGAUGGGAGCUCCAGCACAGUGAAAUGGACAGAAGGGCAGAGCAA [G5U C6G U7G C9A],0.0617
9,AGUUCUAAUCGGGAGCUCCAGCACAGUGAAAUGGACAGAAGGGCAGAGCAA [G5C C6U U7A G8A C9U U10C],0.757
10,AGUUCCUCUCGGGAGCUCCAGCACAGUGAAAUGGACAGAAGGGCAGAGCAA [G5C G8C C9U U10C],0.273
11,AGUUUUAUUUGGGAGCUCCAGCACAGUGAAAUGGACAGAAGGGCAGAGCAA [G5U C6U U7A G8U C9U],0.0321
12,AGUUUUAUAUGGGAGCUCCAGCACAGUGAAAUGGACAGAAGGGCAGAGCAA [G5U C6U U7A G8U C9A],0.0673
13,AGUUUAUUUUGGGAGCUCCAGCACAGUGAAAUGGACAGAAGGGCAGAGCAA [G5U C6A G8U C9U],0.0752
14,AGUUCUGGCCGGGAGCUCCAGCACAGUGAAAUGGACAGAAGGGCAGAGCAA [G5C C6U U7G U10C],0.82
15,AGUUUGCACAGGGAGCUCCAGCACAGUGAAAUGGACAGAAGGGCAGAGCAA [G5U C6G U7C G8A U10A],0.1
16,AGUUUGCACCGGGAGCUCCAGCACAGUGAAAUGGACAGAAGGGCAGAGCAA [G5U C6G U7C G8A U10C],2.27
17,AGUUUUCGACGGGAGCUCCAGCACAGUGAAAUGGACAGAAGGGCAGAGCAA [G5U C6U U7C C9A U10C],2.91
18,AGUUCUUUUCGGGAGCUCCAGCACAGUGAAAUGGACAGAAGGGCAGAGCAA [G5C C6U G8U C9U U10C],0.615
19,AGUUUACACCGGGAGCUCCAGCACAGUGAAAUGGACAGAAGGGCAGAGCAA [G5U C6A U7C G8A U10C],1.56
20,AGUUUACACAGGGAGCUCCAGCACAGUGAAAUGGACAGAAGGGCAGAGCAA [G5U C6A U7C G8A U10A],0.0713
21,AGUUCUUCUCGGGAGCUCCAGCACAGUGAAAGCGACAGAAGGGCAGAGCAA [G5C C6U G8C C9U U10C U32G G33C],1.97
22,AGUUCUUCUCGGGAGCUCCAGCACAGUGAAAGAGACAGAAGGGCAGAGCAA [G5C C6U G8C C9U U10C U32G G33A],0.468
23,AGUUCUUCUCGGGAGCUCCAGCACAGUGAAAGUGACAGAAGGGCAGAGCAA [G5C C6U G8C C9U U10C U32G G33U],0.774
24,AGUUCCCACCGGGAGCUCCAGCACAGUGAAAUGGACAGAAGGGCAGAGCAA [G5C U7C G8A U10C],0.327
25,AGUUCCCACAGGGAGCUCCAGCACAGUGAAAUGGACAGAAGGGCAGAGCAA [G5C U7C G8A U10A],0.03
